Our source for the fold increase in ThT-positive fibrils against WT or K311R values is article PMC7606452.

This assay deals with recombinant K18 tau K311Q (acetylation-mimic) (human). Kind of assay: Thioflavin T fluorescence of heparin-induced aggregation; 10 μM K18 tau, 100 mM sodium acetate pH 7.0, 2 mM DTT, 10 μM heparin, 37 °C; 10 μM ThT, 430 nm excitation and 500 nm emission.

Turning to “recombinant K18 tau K311Q (acetylation-mimic) (domain or fragment)”, the fold increase in ThT-positive fibrils against WT or K311R was 3 fold.
